The source of these data is article PMC10864358, “Structural and mechanistic characterization of bifunctional heparan sulfate N-deacetylase-N-sulfotransferase 1” (Nature Communications, 2024).

Test [1] deals with T1, solubilized recombinant NDST1 (residues 79-882), bifunctional heparan sulfate … (human, UniProt P52848). Kind of test: cell-based or functional assay.
Test [2] deals with T1, solubilized recombinant NDST1 (residues …). Kind of test: differential scanning fluorimetry; NDST1 (1 µg) in 20 µL PBS pH 7.4 with 20X Sypro Orange, with 10.8 µM nAb; 25 to 95 °C. To be noted: both partners purified.
The target in test [3] is T2, biotinylated C-terminal Avitagged NDST1 (Homo sapiens, UniProt P52848, biotin on the C-terminal Avitag (BirA biotin-protein ligase)).
T2 construct: human N-deacetylase-N-sulfotransferase 1 (NDST1) with a C-terminal Avitag, made by PCR with tailed primers and subcloned into pOMNIBac; also called biotinylated NDST1; source: insect cells (baculovirus, pOMNIBac), purified; biotinylated with the BirA kit, then a final round of SEC; not shown: Avitag, C-terminal, kept
Kind of test: SPR; biotinylated NDST1 immobilised on a BiotinCAP sensor chip (Biacore T200), nanobody titrated from 10 µM, 25 °C, 20 mM MES pH 6.5, 100 mM NaCl, 0.05% Tween-20; steady-state responses fitted to a 1:1 model. To be noted: both partners purified. Background: Surface plasmon resonance follows binding to a sensor surface in real time, without labels.

In test [4] the target is T2, biotinylated C-terminal Avitagged NDST1. Kind of test: BLI; biotinylated NDST1 immobilised on Octet SA biosensors, nanobodies in PBS-T, 25 °C, 1000 rpm; steady-state responses fitted to a 1:1 model. The settings on record: both partners purified. (In general: In BLI a coated tip is dipped into the sample, and binding shifts an interference pattern.)
The target of test [5] is T1, solubilized recombinant NDST1 (residues …). Kind of test: cell-based or functional assay. The source holds these as a separate data set.

T2 sequence (P52848 79-882): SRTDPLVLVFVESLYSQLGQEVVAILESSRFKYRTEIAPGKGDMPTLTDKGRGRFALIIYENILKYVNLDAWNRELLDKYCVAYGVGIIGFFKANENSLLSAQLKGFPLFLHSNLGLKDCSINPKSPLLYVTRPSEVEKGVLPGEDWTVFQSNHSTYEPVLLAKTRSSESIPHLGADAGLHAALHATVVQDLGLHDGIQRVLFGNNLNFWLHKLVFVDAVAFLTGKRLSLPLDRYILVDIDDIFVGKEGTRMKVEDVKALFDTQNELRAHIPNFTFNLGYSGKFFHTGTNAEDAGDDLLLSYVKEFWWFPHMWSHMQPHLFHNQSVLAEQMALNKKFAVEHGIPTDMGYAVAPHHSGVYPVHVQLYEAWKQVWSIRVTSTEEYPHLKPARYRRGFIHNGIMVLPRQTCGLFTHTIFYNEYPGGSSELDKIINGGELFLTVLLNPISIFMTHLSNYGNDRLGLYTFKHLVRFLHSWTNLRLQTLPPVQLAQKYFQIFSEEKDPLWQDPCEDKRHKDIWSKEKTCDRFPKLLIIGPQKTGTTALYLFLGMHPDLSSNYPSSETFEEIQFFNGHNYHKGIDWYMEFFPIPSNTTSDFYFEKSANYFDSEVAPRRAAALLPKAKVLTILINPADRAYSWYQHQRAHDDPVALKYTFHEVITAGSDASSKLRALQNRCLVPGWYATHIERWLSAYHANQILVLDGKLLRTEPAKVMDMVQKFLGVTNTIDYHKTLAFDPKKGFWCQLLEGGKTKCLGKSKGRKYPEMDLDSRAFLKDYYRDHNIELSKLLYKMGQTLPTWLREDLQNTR
T1 sequence (P52848 79-882): as above

B1: nAb5 (VHH)
VHH: QVQLVESGGGLVQAGGSLRLSCAASGRTFSSYVMGWFRQAPGKEREFVAAISWSGGTTDYAGSVKGRFTISRDNDRKTMYLEMNDLKPEDTALYYCNFKETWPRTGDYWGPGTQVTVSS
notes: llama VHH from an NDST1-immunized library, selected by phage display; also called anti-NDST1 nanobody 5; source: E. coli WK6, periplasmic extract, purified (HisTrap, SEC)
For orientation: Kd means the concentration at which binding is half-saturated. Turning to B1, in test [1], the “KI of inhibition of NDST1 activity (fluorometric coupled enzyme assay with Sult1a1-K65E-R68G, K5 substrate; Morrison equation)” value was determined as 3300 nM. Also, in test [2], the “stabilization of NDST1 thermal denaturation with 10.8 µM nAb” value (“stabilization” below) was roughly 2.6 °C. In addition, the Kd in test [3] was determined as 570 nM.

B2: nAb6 (VHH)
VHH: QVQLVESGGDLVQPGGSLRLSCAASKTIFVISDMGWYRQAPGKQRELVAMITSGGTTNYADSVKGRFTISRDNTQNTVWLQMNSLKPEDTAVYYCYARVERWRPTDSWGQGTQVTVSS
notes: llama VHH from an NDST1-immunized library, selected by phage display; also called anti-NDST1 nanobody 6; source: E. coli WK6, periplasmic extract, purified (HisTrap, SEC)
With B2, the Kd amounted to 470 nM in test [4] and 840 nM in test [3].

B3: nAb7 (VHH)
VHH: QVQLVESGGGSVQAGGSLRLSCAASGFNVDDYAIGWFRQSPGKEREGVSCIGGDGTTYYENSVKGRFTVSSDKRDNTVYLQMNNLRPEDTAIYFCAADRSKYCVGKYFSTPSQYDFWGRGTHVTVSS
notes: llama VHH from an NDST1-immunized library, selected by phage display; Long CDR3 loop R98-F116; also called anti-NDST1 nanobody 7; source: E. coli WK6, periplasmic extract, purified (HisTrap, SEC)
On to B3, for which the “fold decrease in kcat/KM of NDST1 with respect to K5 with 30 µM nAb7, against NDST1 alone (0.06 vs 0.18 min^-1 mg^-1 mL)” value in test [5] is roughly 3 fold. Moreover, in test [1], the “KI of inhibition of NDST1 activity (fluorometric coupled enzyme assay with Sult1a1-K65E-R68G, K5 substrate; Morrison equation)” value turned out to be 240 nM. Moreover, in test [2], the “stabilization” value is roughly 4.4 °C. Moreover, the values for the Kd in test [4] and in test [3] were 120 nM and 220 nM, respectively.

B4: nAb1 (VHH)
VHH: QVQLVESGGGLVQAGGSLRLSCAASDRTFTTYAMAWFRRAPPGKEREFVASIRWDGFGTYYTDSVKGRFTISRDSAKNEAYLQMNSLRPEDTGVYYCAAGLLFGNTKGYDHWGQGTQVTVSS
notes: llama VHH from an NDST1-immunized library, selected by phage display; also called anti-NDST1 nanobody 1; source: E. coli WK6, periplasmic extract, purified (HisTrap, SEC)
For the molecule B4, the values for the Kd in test [4] and in test [3] were 2670 nM and 2370 nM, respectively.

B5: nAb13 (VHH)
VHH: QVQLVESGGGLVQSGGSLRLSCTASRRASSTIGWFRQAPGKEREFVAGINWSLETATYQDSIKDRFTISRDNANNTVYLQMNSLKPEDTAVYYCAASPYRVMGDTTLYPYWGQGTQVTVSS
notes: in PDB 8CHS nAb13 is modeled only as an all-Calpha chain derived from the nAb7 structure; llama VHH from an NDST1-immunized library, selected by phage display; also called anti-NDST1 nanobody 13; source: E. coli WK6, periplasmic extract, purified (HisTrap, SEC)
As to B5, the “fold enhancement of NDST1 activity in the coupled enzyme assay” value in test [5] is roughly 2 fold. Further, the “kcat of NDST1 with respect to K5 with 30 µM nAb13, against NDST1 alone (0.26 min^-1 vs 0.14 min^-1)” value in test [5] is roughly 86%. Besides, the “EC50 of enhancement of NDST1 activity (fluorometric coupled enzyme assay with Sult1a1-K65E-R68G, K5 substrate)” value in test [1] came to 450 nM. For the same molecule, in test [2], the “stabilization” value is roughly 1.9 °C. Besides, the Kd in test [4] amounted to 240 nM; in test [3] it was 530 nM.
